Results taken from patent US20030124704A1 (YALE UNIVERSITY, published 2003).

Biological target: Alkaline phosphatase-hNogo-A(1055-1120) (human, UniProt P05187 23-511)
Test: AP-fusion ligand binding to COS-7 cells transfected with myc-mNgR3; expression checked by anti-myc staining and immunoblot
Description: The mouse NgR3 cDNA was amplified by PCR from mouse adult brain cDNA, from the signal sequence to the stop codon, and ligated into the pSecTag2 vector such that the vector encodes a signal sequence followed by a myc tag followed by the mature mNgR3 sequence. This plasmid was transfected into COS07cells, and expression of a myc-tagged protein of the predicted size was verified by immunoblot analysis.

Alkaline phosphatase-hNogo-A(1055-1120), sequence (P05187 other isoform, or with tags, fused parts or gaps): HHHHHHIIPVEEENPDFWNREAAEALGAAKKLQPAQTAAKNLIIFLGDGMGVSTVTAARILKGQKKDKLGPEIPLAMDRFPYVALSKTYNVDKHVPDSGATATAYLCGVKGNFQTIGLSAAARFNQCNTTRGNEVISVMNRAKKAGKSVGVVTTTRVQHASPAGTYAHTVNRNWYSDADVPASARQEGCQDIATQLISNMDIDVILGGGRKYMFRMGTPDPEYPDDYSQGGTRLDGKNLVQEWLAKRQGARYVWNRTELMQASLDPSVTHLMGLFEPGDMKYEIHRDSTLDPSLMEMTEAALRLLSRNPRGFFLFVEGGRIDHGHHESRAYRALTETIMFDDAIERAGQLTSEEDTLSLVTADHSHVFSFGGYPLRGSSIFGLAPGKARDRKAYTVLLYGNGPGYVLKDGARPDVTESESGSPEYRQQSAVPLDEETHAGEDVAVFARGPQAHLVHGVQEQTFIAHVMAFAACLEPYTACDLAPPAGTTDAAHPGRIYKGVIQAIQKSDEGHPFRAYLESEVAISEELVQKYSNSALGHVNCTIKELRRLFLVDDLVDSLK

B1: myc epitope-tagged mouse NgR3 (mNgR3) expressed on COS-7 cells (receptor, not shown: small tags and cut ends)
chain: CPRDCVCYPAPMTVSCQAHNFAAIPEGIPEDSERIFLQNNRITFLQQGHFSPAMVTLWIYSNNITFIAPNTFEGFVHLEELDLGDNRQLRTLAPETFQGLVKLHALYLYKCGLSALPAGIFGGLHSLQYLYLQDNHIEYLQDDIFVDLVNLSHLFLHGNKLWSLGQGIFRGLVNLDRLLLHENQLQWVHHKAFHDLHRLTTLFLFNNSLTELQGDCLAPLVALEFLRLNGNAWDCGCRARSLWEWLRRFRGSSSAVPCATPELRQGQDLKLLRVEDFRNCTGPVSPHQIKSHTLTTSDRAARKEHHPSHGASRDKGHPHGHPPGSRSGYKKAGKNCTSHRNRNQISKVSSGKELTELQDYAPDYQHKFSFDIMPTARPKRKGKCARRTPIRAPSGVQQAS
notes: The cDNA was amplified from mouse adult brain; Any processing of the C-terminal GPI signal is not described; also called myc-NgR3
B1: no binding.
